Assays:
Experiment in all cases: IP/MS, LZTR1 wild type-FLAG, U87
TRAPPC11 = target: T1, TRAPPC11 (human, UniProt Q7Z392 1-1133, limits assumed)
T1 sequence (looked up): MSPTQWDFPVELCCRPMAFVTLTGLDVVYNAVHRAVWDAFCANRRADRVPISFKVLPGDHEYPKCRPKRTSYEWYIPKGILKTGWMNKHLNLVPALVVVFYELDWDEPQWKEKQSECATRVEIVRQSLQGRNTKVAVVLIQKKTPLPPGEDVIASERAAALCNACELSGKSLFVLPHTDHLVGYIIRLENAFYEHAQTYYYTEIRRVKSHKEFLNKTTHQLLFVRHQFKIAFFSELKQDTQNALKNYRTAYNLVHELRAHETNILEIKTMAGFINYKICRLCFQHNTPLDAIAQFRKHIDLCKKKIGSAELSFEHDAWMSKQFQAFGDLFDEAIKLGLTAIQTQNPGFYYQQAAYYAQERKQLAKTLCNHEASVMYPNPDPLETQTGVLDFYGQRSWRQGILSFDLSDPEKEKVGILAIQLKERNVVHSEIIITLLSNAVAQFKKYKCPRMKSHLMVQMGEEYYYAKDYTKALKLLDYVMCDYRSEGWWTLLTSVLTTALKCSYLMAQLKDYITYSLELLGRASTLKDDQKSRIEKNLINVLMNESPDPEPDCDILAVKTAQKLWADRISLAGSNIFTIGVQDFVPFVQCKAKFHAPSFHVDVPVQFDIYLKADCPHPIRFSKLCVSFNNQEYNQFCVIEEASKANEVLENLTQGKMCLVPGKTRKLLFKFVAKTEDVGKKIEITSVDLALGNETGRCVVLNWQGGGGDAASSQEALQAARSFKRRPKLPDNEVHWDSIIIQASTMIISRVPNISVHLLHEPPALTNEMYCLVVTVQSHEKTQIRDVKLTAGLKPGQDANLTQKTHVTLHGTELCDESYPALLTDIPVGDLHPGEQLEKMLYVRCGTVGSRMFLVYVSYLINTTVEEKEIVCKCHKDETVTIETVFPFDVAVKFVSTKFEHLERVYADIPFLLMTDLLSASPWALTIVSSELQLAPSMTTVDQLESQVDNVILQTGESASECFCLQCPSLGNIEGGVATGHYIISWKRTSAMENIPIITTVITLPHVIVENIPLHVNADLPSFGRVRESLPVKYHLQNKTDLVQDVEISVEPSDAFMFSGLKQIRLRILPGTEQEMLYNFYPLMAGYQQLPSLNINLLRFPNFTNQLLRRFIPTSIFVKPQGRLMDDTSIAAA
Method in brief: (§1)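 Gel slices were reduced with 5 mM DTT, alkylated with 11 mM IAA and digested overnight at 37° C. with trypsin. Peptides were analysed on an Orbitrap Fusion Tribrid by LC-MS/MS.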

CDC42BPA = CDC42BPA (human, UniProt Q5VT25 1-1732, limits assumed)
Chain of CDC42BPA (Q5VT25 whole entry): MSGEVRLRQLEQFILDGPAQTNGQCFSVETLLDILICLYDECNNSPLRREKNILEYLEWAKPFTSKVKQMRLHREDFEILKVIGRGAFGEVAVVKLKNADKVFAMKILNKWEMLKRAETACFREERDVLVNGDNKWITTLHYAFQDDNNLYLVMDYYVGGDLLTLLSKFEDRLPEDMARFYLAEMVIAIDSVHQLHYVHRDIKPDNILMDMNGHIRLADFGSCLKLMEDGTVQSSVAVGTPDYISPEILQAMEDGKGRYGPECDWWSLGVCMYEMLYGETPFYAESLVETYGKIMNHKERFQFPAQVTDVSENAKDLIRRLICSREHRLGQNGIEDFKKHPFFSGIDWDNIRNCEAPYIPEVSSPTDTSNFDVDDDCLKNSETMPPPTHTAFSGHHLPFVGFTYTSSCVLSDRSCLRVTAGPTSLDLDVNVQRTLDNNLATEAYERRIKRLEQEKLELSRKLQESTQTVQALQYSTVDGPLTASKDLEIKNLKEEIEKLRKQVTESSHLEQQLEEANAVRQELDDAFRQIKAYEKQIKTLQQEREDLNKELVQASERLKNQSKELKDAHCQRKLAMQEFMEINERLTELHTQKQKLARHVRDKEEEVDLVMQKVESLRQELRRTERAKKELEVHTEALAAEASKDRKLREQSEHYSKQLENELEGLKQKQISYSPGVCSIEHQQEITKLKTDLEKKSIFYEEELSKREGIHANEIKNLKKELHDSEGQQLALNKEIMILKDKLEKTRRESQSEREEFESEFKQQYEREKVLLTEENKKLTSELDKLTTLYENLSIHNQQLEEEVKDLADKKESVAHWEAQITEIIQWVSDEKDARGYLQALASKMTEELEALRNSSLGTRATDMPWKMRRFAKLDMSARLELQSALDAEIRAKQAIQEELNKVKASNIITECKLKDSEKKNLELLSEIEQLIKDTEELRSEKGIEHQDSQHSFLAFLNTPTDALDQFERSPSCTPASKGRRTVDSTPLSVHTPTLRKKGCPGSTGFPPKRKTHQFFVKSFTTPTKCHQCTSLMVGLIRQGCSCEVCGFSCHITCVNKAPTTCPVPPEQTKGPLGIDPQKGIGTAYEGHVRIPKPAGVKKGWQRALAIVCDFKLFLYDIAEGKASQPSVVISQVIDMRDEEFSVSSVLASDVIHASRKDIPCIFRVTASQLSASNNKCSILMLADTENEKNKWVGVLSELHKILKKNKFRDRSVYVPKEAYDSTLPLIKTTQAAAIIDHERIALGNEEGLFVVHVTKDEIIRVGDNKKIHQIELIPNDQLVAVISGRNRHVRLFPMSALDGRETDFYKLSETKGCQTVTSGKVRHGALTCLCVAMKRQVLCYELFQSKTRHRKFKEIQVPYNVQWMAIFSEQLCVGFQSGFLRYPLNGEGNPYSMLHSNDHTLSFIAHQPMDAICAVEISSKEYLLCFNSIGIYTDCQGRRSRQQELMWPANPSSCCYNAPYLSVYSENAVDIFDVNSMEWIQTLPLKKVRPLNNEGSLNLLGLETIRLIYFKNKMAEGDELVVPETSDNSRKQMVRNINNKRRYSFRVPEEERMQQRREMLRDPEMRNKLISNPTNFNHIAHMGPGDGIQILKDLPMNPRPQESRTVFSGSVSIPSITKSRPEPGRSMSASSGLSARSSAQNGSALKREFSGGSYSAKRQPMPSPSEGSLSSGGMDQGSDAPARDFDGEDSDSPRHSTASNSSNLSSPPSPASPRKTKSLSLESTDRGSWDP
Method in brief: as §1

DMXL2 = DMXL2 (human, UniProt Q8TDJ6 1-3036, limits assumed)
Method in brief: as §1

TUBGCP2 = TUBGCP2 (human, UniProt Q9BSJ2 1-902, limits assumed)
Chain of TUBGCP2 (Q9BSJ2 whole entry): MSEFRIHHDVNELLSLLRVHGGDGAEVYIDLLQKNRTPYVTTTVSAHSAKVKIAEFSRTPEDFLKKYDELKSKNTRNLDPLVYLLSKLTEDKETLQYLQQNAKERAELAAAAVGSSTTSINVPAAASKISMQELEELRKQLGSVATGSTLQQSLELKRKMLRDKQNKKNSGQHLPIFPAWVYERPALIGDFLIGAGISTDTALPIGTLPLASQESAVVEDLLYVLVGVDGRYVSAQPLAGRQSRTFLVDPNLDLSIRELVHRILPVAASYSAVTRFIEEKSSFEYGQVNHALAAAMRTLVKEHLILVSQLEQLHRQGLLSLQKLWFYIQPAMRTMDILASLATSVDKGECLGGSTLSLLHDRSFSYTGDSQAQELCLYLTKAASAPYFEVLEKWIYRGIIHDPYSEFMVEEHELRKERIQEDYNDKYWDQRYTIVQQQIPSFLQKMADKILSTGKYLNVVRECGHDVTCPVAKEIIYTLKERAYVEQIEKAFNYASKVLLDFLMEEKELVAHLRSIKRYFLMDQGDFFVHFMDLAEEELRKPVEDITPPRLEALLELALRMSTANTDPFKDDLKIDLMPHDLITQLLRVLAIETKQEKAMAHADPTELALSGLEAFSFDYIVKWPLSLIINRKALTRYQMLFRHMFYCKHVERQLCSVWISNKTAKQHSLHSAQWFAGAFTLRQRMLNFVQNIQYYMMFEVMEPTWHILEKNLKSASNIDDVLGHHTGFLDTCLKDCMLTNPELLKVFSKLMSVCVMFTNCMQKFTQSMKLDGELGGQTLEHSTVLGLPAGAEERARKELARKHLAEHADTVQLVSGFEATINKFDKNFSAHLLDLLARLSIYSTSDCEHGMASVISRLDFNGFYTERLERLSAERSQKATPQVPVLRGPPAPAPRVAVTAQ
Method in brief: as §1

SPG11 = SPG11 (human, UniProt Q96JI7 1-2443, limits assumed)
Chain of SPG11 (Q96JI7 whole entry): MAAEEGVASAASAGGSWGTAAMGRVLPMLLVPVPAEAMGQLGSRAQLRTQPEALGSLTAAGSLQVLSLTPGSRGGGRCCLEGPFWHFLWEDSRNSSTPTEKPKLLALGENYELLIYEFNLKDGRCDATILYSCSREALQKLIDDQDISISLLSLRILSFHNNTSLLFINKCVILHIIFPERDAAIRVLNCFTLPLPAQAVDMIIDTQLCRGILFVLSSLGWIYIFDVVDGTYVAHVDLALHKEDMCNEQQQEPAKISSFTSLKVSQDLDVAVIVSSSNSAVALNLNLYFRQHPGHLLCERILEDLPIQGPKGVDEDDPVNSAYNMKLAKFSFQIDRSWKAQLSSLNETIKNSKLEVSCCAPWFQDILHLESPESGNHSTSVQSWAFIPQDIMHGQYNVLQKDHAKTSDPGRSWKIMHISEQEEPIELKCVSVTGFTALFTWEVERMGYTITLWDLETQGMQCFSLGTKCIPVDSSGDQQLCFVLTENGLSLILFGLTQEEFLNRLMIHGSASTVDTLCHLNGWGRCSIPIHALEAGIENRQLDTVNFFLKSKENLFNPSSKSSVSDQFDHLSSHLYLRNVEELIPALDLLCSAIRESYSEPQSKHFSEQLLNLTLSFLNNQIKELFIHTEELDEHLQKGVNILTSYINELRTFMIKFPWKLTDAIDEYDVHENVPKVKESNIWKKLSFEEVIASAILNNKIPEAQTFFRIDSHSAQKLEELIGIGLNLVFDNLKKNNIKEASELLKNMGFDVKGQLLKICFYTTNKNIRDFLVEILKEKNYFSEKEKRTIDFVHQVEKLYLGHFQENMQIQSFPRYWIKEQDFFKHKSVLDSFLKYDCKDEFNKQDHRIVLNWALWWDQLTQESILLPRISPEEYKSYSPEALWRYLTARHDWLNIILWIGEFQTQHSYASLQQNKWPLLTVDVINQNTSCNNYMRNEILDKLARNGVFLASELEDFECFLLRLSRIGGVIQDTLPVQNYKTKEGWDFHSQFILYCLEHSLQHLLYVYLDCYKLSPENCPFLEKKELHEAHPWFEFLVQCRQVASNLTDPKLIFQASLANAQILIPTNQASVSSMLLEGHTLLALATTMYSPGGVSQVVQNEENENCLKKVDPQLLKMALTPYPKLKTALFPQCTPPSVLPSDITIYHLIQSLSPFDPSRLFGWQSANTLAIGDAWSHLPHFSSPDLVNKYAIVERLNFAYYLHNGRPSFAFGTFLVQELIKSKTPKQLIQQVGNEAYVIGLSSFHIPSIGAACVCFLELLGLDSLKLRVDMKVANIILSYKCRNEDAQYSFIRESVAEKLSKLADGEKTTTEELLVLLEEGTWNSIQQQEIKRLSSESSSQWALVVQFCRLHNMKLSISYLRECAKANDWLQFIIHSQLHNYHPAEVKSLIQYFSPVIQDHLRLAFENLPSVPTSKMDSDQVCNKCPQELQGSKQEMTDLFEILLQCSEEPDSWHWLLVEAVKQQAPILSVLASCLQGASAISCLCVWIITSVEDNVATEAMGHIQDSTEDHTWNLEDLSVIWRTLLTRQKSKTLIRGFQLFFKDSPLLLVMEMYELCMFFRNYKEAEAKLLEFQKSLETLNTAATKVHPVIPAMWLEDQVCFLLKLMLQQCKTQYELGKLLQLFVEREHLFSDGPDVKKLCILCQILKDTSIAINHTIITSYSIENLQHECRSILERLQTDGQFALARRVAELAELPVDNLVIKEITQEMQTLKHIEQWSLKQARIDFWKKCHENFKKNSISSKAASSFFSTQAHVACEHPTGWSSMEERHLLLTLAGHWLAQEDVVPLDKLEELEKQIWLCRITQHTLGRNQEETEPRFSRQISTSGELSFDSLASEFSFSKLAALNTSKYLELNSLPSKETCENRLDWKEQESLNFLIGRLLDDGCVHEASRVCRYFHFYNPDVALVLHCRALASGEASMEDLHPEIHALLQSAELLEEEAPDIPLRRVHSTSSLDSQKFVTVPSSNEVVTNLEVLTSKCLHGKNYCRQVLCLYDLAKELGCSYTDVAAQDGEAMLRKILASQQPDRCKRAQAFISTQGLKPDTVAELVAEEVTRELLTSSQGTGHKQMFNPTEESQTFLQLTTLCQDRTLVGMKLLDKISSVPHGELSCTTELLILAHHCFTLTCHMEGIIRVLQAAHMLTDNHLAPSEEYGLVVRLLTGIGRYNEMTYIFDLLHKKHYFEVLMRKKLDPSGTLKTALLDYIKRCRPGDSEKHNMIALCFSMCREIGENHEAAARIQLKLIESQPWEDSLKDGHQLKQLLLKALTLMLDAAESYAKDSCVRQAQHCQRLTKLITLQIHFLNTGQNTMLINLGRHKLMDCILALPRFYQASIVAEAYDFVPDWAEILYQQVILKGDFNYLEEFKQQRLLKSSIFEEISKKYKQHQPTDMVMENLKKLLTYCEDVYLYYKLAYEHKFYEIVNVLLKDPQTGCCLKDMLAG
Method in brief: as §1

binding result (TRAPPC11): binds
binding result (CDC42BPA): binds
binding result (DMXL2): binds
binding result (TUBGCP2): binds
binding result (SPG11): binds
B1: LZTR1-FLAG (other, human, UniProt Q8N653 1-840, looked up)
chain: MAGPGSTGGQIGAAALAGGARSKVAPSVDFDHSCSDSVEYLTLNFGPFETVHRWRRLPPCDEFVGARRSKHTVVAYKDAIYVFGGDNGKTMLNDLLRFDVKDCSWCRAFTTGTPPAPRYHHSAVVYGSSMFVFGGYTGDIYSNSNLKNKNDLFEYKFATGQWTEWKIEGRLPVARSAHGATVYSDKLWIFAGYDGNARLNDMWTIGLQDRELTCWEEVAQSGEIPPSCCNFPVAVCRDKMFVFSGQSGAKITNNLFQFEFKDKTWTRIPTEHLLRGSPPPPQRRYGHTMVAFDRHLYVFGGAADNTLPNELHCYDVDFQTWEVVQPSSDSEVGGAEVPERACASEEVPTLTYEERVGFKKSRDVFGLDFGTTSAKQPTQPASELPSGRLFHAAAVISDAMYIFGGTVDNNIRSGEMYRFQFSCYPKCTLHEDYGRLWESRQFCDVEFVLGEKEECVQGHVAIVTARSRWLRRKITQARERLAQKLEQEAAPVPREAPGVAAGGARPPLLHVAIREAEARPFEVLMQFLYTDKIKYPRKGHVEDVLLIMDVYKLALSFQLCRLEQLCRQYIEASVDLQNVLVVCESAARLQLSQLKEHCLNFVVKESHFNQVIMMKEFERLSSPLIVEIVRRKQQPPPRTPLDQPVDIGTSLIQDMKAYLEGAGAEFCDITLLLDGHPRPAHKAILAARSSYFEAMFRSFMPEDGQVNISIGEMVPSRQAFESMLRYIYYGEVNMPPEDSLYLFAAPYYYGFYNNRLQAYCKQNLEMNVTVQNVLQILEAADKTQALDMKRHCLHIIVHQFTKVSKLPTLRSLSQQLLLDIIDSLASHISDKQCAELGADI
notes: Expressed in HEK 293T, HeLa or U87 cells; used as cell lysate; also called LZTR1 wild type-FLAG; LZTR1 WT; not shown: FLAG tag at the C-terminus
